Experimental data: patent US20240270859A1 (HK INNO N, published 2024)
Where two headings read alike, the source gives them in different places.

Columns and labels:
[1] = target: T1, human OX40L protein (OX40L-his), Acro Biosystems Cat #OXL-H52Q8 (human, UniProt P23510 51-183); test: cell-based or functional assay
T1 sequence: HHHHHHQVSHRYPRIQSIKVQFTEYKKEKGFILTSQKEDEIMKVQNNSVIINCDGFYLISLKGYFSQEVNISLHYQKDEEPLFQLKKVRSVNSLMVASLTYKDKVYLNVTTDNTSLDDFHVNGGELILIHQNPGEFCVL

[2] = target: T1, human OX40L protein (OX40L-his), Acro …; test: SPR (Biacore T200), antibody captured by anti-hFc on CM5 chip, antigen as analyte
Experimental: A surface plasmon resonance (SPR) analysis was performed by using Bicore T200, and a running buffer used was HBS-EP (10 mM HEPES, pH7.4, 150 mM NaCl, 3 mM EDTA, […] surfactant P20). A human antibody capture kit (anti-hFc antibody) was fixed onto a surface of CM5 chip through an amine coupling method. […] An analytical sample was prepared with high purity/high concentration so that the minimum dilution factor could be 100 or more, thereby minimizing a buffer effect.

[3] = target: T1, human OX40L protein (OX40L-his), Acro …; test: cell-based or functional assay; remark: listed apart in the source
[4] = target: human TNFα (TNF-H5228 of Acro Biosystems) (human, UniProt P01375 77-233); test: cell-based or functional assay
Sequence of human TNFα (TNF-H5228 of Acro Biosystems) (P01375 77-233 limits assumed): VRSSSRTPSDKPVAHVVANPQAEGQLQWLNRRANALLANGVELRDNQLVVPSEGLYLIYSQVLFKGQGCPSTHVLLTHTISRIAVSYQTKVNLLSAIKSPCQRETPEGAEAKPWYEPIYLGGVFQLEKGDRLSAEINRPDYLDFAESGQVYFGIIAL

| Binder | IC50 (nM), OX40L blockade assay (luminescence of NFκB-luc2/OX40 Jurkat cells) [1] [nM] | IC50(µg/mL), OX40L blockade assay (luminescence of NFκB-luc2/OX40 Jurkat cells) [1] [µg/mL] | Kd [2] [nM] | IC50 (nM), OX40L blockade assay (luminescence of NFκB-luc2/OX40 Jurkat cells) [3] [nM] | IC50 (nM), TNFα blockade assay (luminescence of NFκB-RE HEK293 cells) [4] [nM] | koff [2] [s⁻¹] | kon [2] [M⁻¹ s⁻¹] |
| --- | --- | --- | --- | --- | --- | --- | --- |
| bispecific antibody Hu3F07-TNFαi HC (bispecific antibody) heavy: not shown light: DIVMTQSPLSLPVTLGEPASISCRSSQSLVHSNGNTYLHWYLQKPGQSPQLLIYKVSNRFSGVPDRFSGSGSGTDFTLKISRVEAEDVGVYYCSQSTHVPPTFGGGTKLEIKRTVAAPSVFIFPPSDEQLKSGTASVVCLLNNFYPREAKVQWKVDNALQSGNSQESVTEQDSKDSTYSLSSTLTLSKADYEKHKVYACEVTHQGLSSPVTKSFNRGEC | 0.21 | 0.041 | 0.45 | – | – | – | – |
| bispecific antibody I3F07-TNFαi HC (bispecific antibody) heavy: not shown light: DIVLTQSPLSLPVSLGDQASISCRSSQSLVHSNGNTYLHWYLQKPGQSPKLLIYKVSNRFSGVPDRFSGSGSGTDFTLKISRVEAEDLGVYFCSQSTHVPPTFGGGSKLEIKRTVAAPSVFIFPPSDEQLKSGTASVVCLLNNFYPREAKVQWKVDNALQSGNSQESVTEQDSKDSTYSLSSTLTLSKADYEKHKVYACEVTHQGLSSPVTKSFNRGEC | – | – | – | 0.91 | 0.055 | – | – |
| reference anti-OX40L antibody O4L (VH and VL of oxelumab) (antibody, human IgG4 S228P, kappa, V domains shown) VH: EVQLLESGGGLVQPGGSLRLSCAASGFTFNSYAMSWVRQAPGKGLEWVSIISGSGGFTYYADSVKGRFTISRDNSRTTLYLQMNSLRAEDTAVYYCAKDRLVAPGTFDYWGQGALVTVSS VL: DIQMTQSPSSLSASVGDRVTITCRASQGISSWLAWYQQKPEKAPKSLIYAASSLQSGVPSRFSGSGSGTDFTLTISSLQPEDFATYYCQQYNSYPYTFGQGTKLEIKR | 1.95 | 0.293 | – | – | – | – | – |
| bispecific antibody 02C09-TNFαi HC (bispecific antibody) heavy: not shown light: DIQMTQSPSSLSASLGDRVTITCRASQSIGRWLAWYQQKPGNAPKLLIYKATILESGVPSRFSGSGSGTEFALTISSLQPDDFSAYYCQQYNSYPYTFGQGTKLEIKRTVAAPSVFIFPPSDEQLKSGTASVVCLLNNFYPREAKVQWKVDNALQSGNSQESVTEQDSKDSTYSLSSTLTLSKADYEKHKVYACEVTHQGLSSPVTKSFNRGEC | 0.59 | 0.117 | 0.472 | – | – | – | – |
| anti-OX40L antibody Hu3F07 (antibody, human IgG4 S228P, kappa, V domains shown, Humanized; IgG4 S228P / kappa) VH: QVQLVQSGAEVKKPGASVKVSCKASGFTFPDYWMHWVRQAPGQGLEWMGEIDPPNGRTNYNEKFKSRVTMTRDTSISTAYMELSRLRSDDTAVYYCARGIYYVDYWGQGTTVTVSS VL: DIVMTQSPLSLPVTLGEPASISCRSSQSLVHSNGNTYLHWYLQKPGQSPQLLIYKVSNRFSGVPDRFSGSGSGTDFTLKISRVEAEDVGVYYCSQSTHVPPTFGGGTKLEIKR | 0.2 | 0.03 | 0.282 | – | – | 0.000357 | 1.27e+06 |
| anti-OX40L antibody 10H07 (antibody, human IgG4 S228P, kappa, V domains shown, Chimeric; IgG4 S228P / kappa) VH: QVYLQQSGAELVKPGASVKLSCKASGYTFTDYWMHWVKQRPGQGLEWIGEIDPGNGRTNYNEKFKNKATLSVDKSSNTAYMQFSSLTSEDSAVFYCASEGAGRGFPYWGQGTLVTVSA VL: DVVLTQTPLSLPVSLGDQASISCRSSQSLVHSNGNTYLHWYLQKPGQSPKLLIYKVSNRFSGVPDRFSGSGSGTDFTLKISRVEAEDLGVYFCSQSTHVPWTFGGGTKLEIKR | 0.41 | 0.061 | 0.295 | – | – | 0.000498 | 1.69e+06 |
| anti-OX40L antibody 21G07 (antibody, human IgG4 S228P, kappa, V domains shown, Chimeric; IgG4 S228P / kappa) VH: QVQLQQSGAELVKPGASVKLSCKASGYTFTNYWMQWVKQRPGQGLEWIGEIDPSDGRTNYNEKFKNKATLTVDRSSSTAYIKLSSLTSEDSAVYYCAREVSLRSMDYWGQGTSVTVSS VL: DIVLTQSPLSLPVSLGDQASISCRSSQSLVHSNGNTYLHWYLQKPGQSPKLLIYKVSNRFSGVPDRFSGSGSGTDFTLKISRVEAEDLGVYFCSQSTHVPFTFGSGTKLEIKR | 0.85 | 0.128 | 0.603 | – | – | 0.00065 | 1.08e+06 |
